Assay results published in doi:10.1101/2024.03.13.584817 (bioRxiv, 2024).

Legend:
[1] = target: dROS1 ECR construct 1-9 (126-2113) (Drosophila, UniProt P13368 126-2113); assay: SPR
[2] = target: T1, dROS1 ECR construct 1-4 (126-1298), His-tagged (Drosophila, UniProt P13368 126-1298); assay: SPR
T1 sequence (looked up): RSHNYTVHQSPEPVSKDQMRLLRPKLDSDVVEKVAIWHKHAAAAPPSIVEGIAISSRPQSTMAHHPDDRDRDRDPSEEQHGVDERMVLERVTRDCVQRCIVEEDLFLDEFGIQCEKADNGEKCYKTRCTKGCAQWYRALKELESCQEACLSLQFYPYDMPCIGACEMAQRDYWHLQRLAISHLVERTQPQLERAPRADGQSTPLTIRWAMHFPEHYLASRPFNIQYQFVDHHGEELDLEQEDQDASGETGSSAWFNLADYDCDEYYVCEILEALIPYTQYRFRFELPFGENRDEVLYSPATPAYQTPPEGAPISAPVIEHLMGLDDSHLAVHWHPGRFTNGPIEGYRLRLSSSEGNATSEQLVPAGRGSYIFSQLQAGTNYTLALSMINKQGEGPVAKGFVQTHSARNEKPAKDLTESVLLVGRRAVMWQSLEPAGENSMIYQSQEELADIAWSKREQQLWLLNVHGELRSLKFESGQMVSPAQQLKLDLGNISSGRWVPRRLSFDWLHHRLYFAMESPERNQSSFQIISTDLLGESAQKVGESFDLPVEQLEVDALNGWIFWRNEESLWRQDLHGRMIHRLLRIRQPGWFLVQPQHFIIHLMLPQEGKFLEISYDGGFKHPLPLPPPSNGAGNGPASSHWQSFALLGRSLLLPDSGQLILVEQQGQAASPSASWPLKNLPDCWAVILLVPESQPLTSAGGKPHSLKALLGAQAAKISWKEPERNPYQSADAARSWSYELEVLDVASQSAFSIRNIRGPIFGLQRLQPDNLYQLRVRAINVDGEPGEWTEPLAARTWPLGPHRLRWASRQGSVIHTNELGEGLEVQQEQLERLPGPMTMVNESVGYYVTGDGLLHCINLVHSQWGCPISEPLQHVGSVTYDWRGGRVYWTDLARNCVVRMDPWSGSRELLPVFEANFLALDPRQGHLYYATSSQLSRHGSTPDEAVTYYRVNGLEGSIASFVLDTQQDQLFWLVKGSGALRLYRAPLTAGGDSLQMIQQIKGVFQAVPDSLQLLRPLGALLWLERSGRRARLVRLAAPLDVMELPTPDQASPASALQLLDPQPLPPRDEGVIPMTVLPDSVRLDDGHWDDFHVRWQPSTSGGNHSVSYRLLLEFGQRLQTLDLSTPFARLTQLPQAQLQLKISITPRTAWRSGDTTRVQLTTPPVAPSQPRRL

B1: BOSS ECR (102-510), His-tag cleaved (domain or fragment, Drosophila, UniProt P22815 102-510, looked up)
chain: GTTASLVPEICLNGLQLTVNSADEGTVIRKQEEFVKILEGDVVLSVLTKDPDSALFVINRVNQANLIMADFEIGIRAISIDNASLAENLLIQEVQFLQQCTTYSMGIFVDWELYKQLESVIKDLEYNIWPIPGTRAHLFPKVAHLLHQMPWGEKIASVEIATETLEMYNEFMEAARQEHMCLMHFKSDDNVYIMFGNKLASHFKENGTLFSVPTDRTDDEFLADLPNRAFVLMENEIDLSTAVELDATPTALDEILIGKSVLPSRVLSFAGSIIDLMNWLRGSLSKHCKRGEEHDLYVLESCFNFLNFIEDWRTSEYRQAHDTAEILSLLLMRKLGTAMNFQMYQKKVLTLDKITGESRTELREIASQNFVTNVTTYYHYNRDNHTSLELKTKFGQVFNCQYSAGDNRR
Kd [1]: 4.4 µM
Kd [2]: 3 to 5 µM
